# B1: T14.06 (designed binder)
# chain: VSDVPRDLEVVAATPTSLLISWTRTNASTRYYRITYGETGGNSPVQEFTVPNFWWTATISGLKPGVDYTITVYAVTSPDETSAYSEPISINYRT
# Target: tumor necrosis factor-α (TNF-α) (human) (UniProt P01375)
# Assay: 35S free protein + biotin-TNF-α in solution, biotin capture membrane, phosphorimaging
# Sequence of tumor necrosis factor-α (TNF-α) (human) (P01375 77-233 limits assumed): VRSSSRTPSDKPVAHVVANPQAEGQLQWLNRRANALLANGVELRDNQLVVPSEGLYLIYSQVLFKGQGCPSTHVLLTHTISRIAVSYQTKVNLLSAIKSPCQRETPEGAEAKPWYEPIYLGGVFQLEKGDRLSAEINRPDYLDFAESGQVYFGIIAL
binder,measurement,value
B1,Kd,1.4 nM
